From patent US20200207873A1 (INSERM INSTITUT NATIONAL DE LA SANT ET DE LA RECHERCHE M …, published 2020)

Molecular target: T1, full-length His-tagged pUL89 (wild-type) (human cytomegalovirus, AD169 genotype, UniProt P16732 1-674)
T1 construct: mature; It was expressed from pCI-neo His-pUL89 in HEK293 cells and purified on Ni resin; also called His-pUL89; 6xHis-pUL89; not shown: 6xHis tag
T1 sequence: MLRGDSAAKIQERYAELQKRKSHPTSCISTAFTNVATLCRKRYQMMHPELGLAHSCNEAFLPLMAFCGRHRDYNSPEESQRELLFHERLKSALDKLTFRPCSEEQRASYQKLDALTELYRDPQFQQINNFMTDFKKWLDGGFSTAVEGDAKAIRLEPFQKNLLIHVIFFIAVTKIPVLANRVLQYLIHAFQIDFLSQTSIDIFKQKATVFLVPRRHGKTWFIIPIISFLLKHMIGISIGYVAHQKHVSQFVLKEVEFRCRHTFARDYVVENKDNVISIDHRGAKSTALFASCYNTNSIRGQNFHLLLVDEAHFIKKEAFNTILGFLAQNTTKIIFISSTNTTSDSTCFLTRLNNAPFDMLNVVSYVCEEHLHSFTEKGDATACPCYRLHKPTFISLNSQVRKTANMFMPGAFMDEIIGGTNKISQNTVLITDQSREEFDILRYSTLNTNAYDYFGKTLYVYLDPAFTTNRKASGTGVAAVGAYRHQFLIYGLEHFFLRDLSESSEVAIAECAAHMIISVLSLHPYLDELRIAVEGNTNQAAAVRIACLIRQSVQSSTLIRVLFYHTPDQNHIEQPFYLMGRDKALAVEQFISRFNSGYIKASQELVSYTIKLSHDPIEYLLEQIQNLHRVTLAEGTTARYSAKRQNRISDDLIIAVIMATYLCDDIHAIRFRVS
Assay: Alpha proximity assay, purified proteins; negative controls are each protein alone

B1: full-length amino-terminal 3xHA-tagged pUL56 (wild-type) (other)
chain: MEMNLLQKLCVVCSKCNEYAMELECLKYCDPNVLLAESTPFKRNAAAIVYLYRKIYPEVVAQNRTQSSLLTLYLEMLLKALHEDTALLDRALMAYSRQPDRAAFYRTVLRLDRCDRHHTVELQFTDNVRFSVSLATLNDIERFLCKMNYVYGILAPEAGLEVCAQLLELLRRLCGISPVARQEVYVEGTTCAQCYEELTIIPNQGRSLNKRLQGLLCNHIAVHRPSSQSDVNIQTVEQDLLDLTTRIPHLAGVLSALKSLFSSSSAYHSYIQEAEEALREYNLFTDIPERIYSLSDFTYWSRTSEVIVKRVGITIQQLNVYHQLCRALMNGISRHLYGEDVEDIFVLGEKALDGEERMFVGSVFAAPNRIIDLITSLSIQAFEDNPVFNKLHESNEMYTKIKHILEEIRRPLPDGTGGDGPEGEAIHLRGREAMSGTGTTLMTASNSSNSSTHSQRNNGGGGRARGGGKKAVGGGANGQDGDGSENGLRVRNCDEHEALDLVDARSRIHNVTREVNVRKRAYLQKVSEVGYGKVIRCIKTQERLTSKLIDVNLVGPLCLDFISKLMNGFLYRSQYHQDQDVVDVGDQFTYDEHLYVVNNLIHKSLPVESLPLLGQQIYELCNGPLFTHCTDRYPLSHNVDMAYACDNAGVLPHVKDDLVKCAEGTVYPSEWMVVKYMGFFNFSDCQDLNVLQKEMWMHVRELVLSVALYNETFGKQLSIACLRDELHPDRDVILTYNKEWPLLLRHEGNLYKSKDLYLLLYRHLSRPDESGDVPTAPVAKPSTLTAAAAVSGAFREPDRPWLPSPYPSSSTAGVSRRVRATRKRPRRASSLLDLARDEHGIQDLVPGSLR
notes: also called 3xHA-pUL56; HA-pUL56; not shown: amino-terminal 3xHA tag
  fold of Alpha signal over negative controls: > 2 fold
